The source of these data is patent US20180250395A1 (Janssen / Centocor, published 2018).

Assay [1] concerns the target T1, Cyno CD47 ECD protein, His-tagged, monomer (cyno).
T1 construct: extracellular domain; also called cynomolgus CD47
Put plainly: ProteOn SPR; cyno KD / human KD.

Assay [2] concerns the target T2, recombinant human CD47 extracellular domain (ECD), His-tagged, monomer (human, UniProt Q08722 19-141).
T2 construct: C-terminal 6xHis tag; monomeric fraction from Superdex 200; also called human CD47 ECD; CD47-ECD monomer
Put plainly: ProteOn SPR; mAb captured, ECD monomer as analyte.

The target of assay [3] is T1, Cyno CD47 ECD protein, His-tagged, …. The assay is described as follows: ProteOn SPR; mAb captured, ECD monomer as analyte.
For assay [4], the target named is T3, recombinant human CD47 extracellular domain (ECD), His-tagged, dimer (human, UniProt Q08722 19-141).
T3 construct: Dimeric fraction of the same His-tagged ECD; also called His-tagged CD47-ECD dimer protein
The assay is described as follows: MSD; CD47-ECD dimer binding to captured SIRP alpha-Fc, mAb 10 µg/ml.

B1: C47B233 (antibody, V domains shown)
VH: EVQLVQSGAEVKKPGESLKISCKGSGYSFTNYWIGWVRQMPGKGLEWMGIIYPGDSDTRYSPSFQGQVTISADKSISTAYLQWSSLKASDTAVYYCARVGRFASHQLDYWGQGTLVTVSS
VL: EIVLTQSPATLSLSPGERATLSCRASQSVGSRLAWYQQKPGQAPRLLIYWASTRATGIPARFSGSGSGTDFTLTISSLEPEDFAVYYCQQGAYWPFTFGQGTKVEIK
notes: human IgG2sigma/kappa
The term Kd denotes the constant that tells how readily two partners part at equilibrium. For the molecule B1, the “KD Ratio Cyno/Human” value in assay [1] was 0.8. The Kd is 3.9 nM in assay [2] and 3.02 nM in assay [3]. Besides, the “% SIRP alpha Inhibition” value in assay [4] is 98.4%.

B2: C47B236 (antibody, V domains shown)
VH: EVQLVQSGAEVKKPGESLKISCKGSGYSFKDDWIGWVRQMPGKGLEWMGIIYPGDSDTRYSPSFQGQVTISADKSISTAYLQWSSLKASDTAVYYCARVGRFASHQLDYWGQGTLVTVSS
VL: EIVLTQSPATLSLSPGERATLSCRASQSVNKALAWYQQKPGQAPRLLIYGASNRATGIPARFSGSGSGTDFTLTISSLEPEDFAVYYCQQGKGWPFTFGQGTKVEIK
notes: human IgG2sigma/kappa
B2: the “KD Ratio Cyno/Human” value in assay [1] turned out to be 5. In addition, the Kd in assay [2] worked out at 2.92 nM; in assay [3] it was 14.6 nM. For the same molecule, the “% SIRP alpha Inhibition” value in assay [4] stood at 9.8%.

B3: C47B237 (antibody, V domains shown)
VH: EVQLVQSGAEVKKPGESLKISCKGSGYSFTSYWIGWVRQMPGKGLEWMGIIYPGDSDTRYSPSFQGQVTISADKSISTAYLQWSSLKASDTAMYYCARVGRFASHQLDYWGQGTLVTVSS
VL: EIVLTQSPATLSLSPGERATLSCRASQSVNNRLAWYQQKPGQAPRLLIHWASTRAIGIPARFSGSGSGTDFTLTISSLEPEDFAVYYCQQGASWPFTFGQGTKVEIK
notes: human IgG2sigma/kappa
In the case of B3, in assay [1], the “KD Ratio Cyno/Human” value was 1.4. Moreover, the figures for the Kd in assay [2] and in assay [3] were 2.57 nM and 3.51 nM, respectively. In assay [4], the “% SIRP alpha Inhibition” value is 97.9%.

B4: C47B238 (antibody, V domains shown)
VH: EVQLVQSGAEVKKPGESLKISCKGSGYSFTSYWIGWVRQMPGKGLEWMGIIYPGDSDTRYSPSFQGQVTISADKSISTAYLQWSSLKASDTAMYYCARVGRFASHQLDYWGQGTLVTVSS
VL: EIVLTQSPATLSLSPGERATLSCRASQSVGSRLAWYQQKPGQAPRLLIYWASTRATGIPARFSGSGSGTDFTLTISSLEPEDFAVYYCQQGAYWPFTFGQGTKVEIK
notes: human IgG2sigma/kappa
As to B4, the “KD Ratio Cyno/Human” value in assay [1] was determined as 1.1. Moreover, the results for the Kd in assay [2] and in assay [3] were 3.53 nM and 3.73 nM, respectively. Also, the “% SIRP alpha Inhibition” value in assay [4] amounted to 99.1%.

B5: C47B234 (antibody, V domains shown)
VH: EVQLVQSGAEVKKPGESLKISCKGSGYSFDNYWIGWVRQMPGKGLEWMGIIYPGDSDTRYSPSFQGQVTISADKSISTAYLQWSSLKASDTAVYYCARVGRFASHQLDYWGQGTLVTVSS
VL: EIVLTQSPATLSLSPGERATLSCRASQSVNKALAWYQQKPGQAPRLLIYGASNRATGIPARFSGSGSGTDFTLTISSLEPEDFAVYYCQQGKGWPFTFGQGTKVEIK
notes: human IgG2sigma/kappa
Turning to B5, the “KD Ratio Cyno/Human” value in assay [1] is 1.8. Moreover, the Kd in assay [2] worked out at 4.49 nM; in assay [3], 7.93 nM. Also, in assay [4], the “% SIRP alpha Inhibition” value came out at 86.6%.

B6: C47B235 (antibody, V domains shown)
VH: EVQLVQSGAEVKKPGESLKISCKGSGYSFDDYWISWVRQMPGKGLEWMGIIYPGDSDTRYSPSFQGQVTISADKSISTAYLQWSSLKASDTAVYYCARVGRFASHQLDYWGQGTLVTVSS
VL: EIVLTQSPATLSLSPGERATLSCRASQSVNKALAWYQQKPGQAPRLLIYGASNRATGIPARFSGSGSGTDFTLTISSLEPEDFAVYYCQQGKGWPFTFGQGTKVEIK
notes: human IgG2sigma/kappa
As to B6, the “KD Ratio Cyno/Human” value in assay [1] was determined as 1.3. Further, the Kd worked out at 2.35 nM in assay [2] and 3.06 nM in assay [3]. Further, in assay [4], the “% SIRP alpha Inhibition” value turned out to be 99.9%.
